# Experimental data as given in PMC9402430, “Cryo-EM structure of an active bacterial TIR–STING filament complex” (Nature, 2022).
# Assays:
# [1] = molecular target: T1, SfSTING (Sphingobacterium faecium TIR–STING) (Sphingobacterium faecium, UniProt A0A2T5Y4G4); assay: fluorescence NADase assay; type: biochemical; conditions: 500 uM substrate; 20 uM c-di-GMP activator; 20 mM HEPES-KOH pH 7.5, 100 mM KCl
# T1 construct: gene cap12; full-length TIR-STING; N-terminal 6xHis fusion, modified pET16, E. coli BL21-CodonPlus(DE3)-RIL; homodimer forming filaments
# T1 sequence (A0A2T5Y4G4 1-323): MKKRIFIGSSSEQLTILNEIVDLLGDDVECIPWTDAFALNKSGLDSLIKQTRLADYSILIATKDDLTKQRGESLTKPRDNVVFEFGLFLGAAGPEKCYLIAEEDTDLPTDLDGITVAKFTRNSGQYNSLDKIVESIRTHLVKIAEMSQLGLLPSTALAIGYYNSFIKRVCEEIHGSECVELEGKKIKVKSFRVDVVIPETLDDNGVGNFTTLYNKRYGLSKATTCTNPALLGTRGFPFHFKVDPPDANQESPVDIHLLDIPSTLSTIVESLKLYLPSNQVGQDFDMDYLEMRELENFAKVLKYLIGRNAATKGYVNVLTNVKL
# [2] = molecular target: T1, SfSTING (Sphingobacterium faecium TIR–STING); assay: cryo-EM structure; EMSA; conditions: 3x molar c-di-GMP (84 uM); STING CDN-binding pocket at dimer interface; activating ligand
# [3] = molecular target: the molecule itself; assay: negative-stain EM; 1 μM wild-type or mutant SfSTING with 10 μM c-di-GMP, 20 mM HEPES-KOH pH 7.5, 250 mM KCl, 1 mM TCEP, 15 min on ice; dimers to filament
# [4] = molecular target: the molecule itself; assay: cryo-EM structure; SfSTING 1 mg/ml rapidly mixed with 3× molar 3′,3′-cGAMP (84 μM), a weakly activating ligand; dimers to short oligomers
# [5] = molecular target: the molecule itself; assay: cryo-EM structure; SfSTING 1 mg/ml rapidly mixed with 3× molar c-di-GMP (84 μM), frozen within 10 s, 4 °C; second dataset pre-incubated with 1 mM benzamide adenine dinucleotide; dimers to filament (single and antiparallel double filaments)
molecule,measurement,setting,value
"NC(=O)c1ccc[n+]([C@@H]2O[C@H](COP(=O)(O)OP(=O)(O)OC[C@H]3O[C@@H](n4cnc5c4ncn4ccnc54)[C@H](O)[C@@H]3O)[C@@H](O)[C@H]2O)c1 [nicotinamide 1,N^6-ethenoadenine dinucleotide]",fluorescence NADase assay,[1],WT* and E95Q* mutant SfSTING consume the ε-NAD substrate within the deadtime
Nc1nc2c(ncn2[C@@H]2O[C@@H]3COP(=O)(O)O[C@H]4[C@@H](O)[C@H](n5cnc6c(=O)[nH]c(N)nc65)O[C@@H]4COP(=O)(O)O[C@H]3[C@H]2O)c(=O)[nH]1 [c-di-GMP],cryo-EM structure; EMSA,[2],cryo-EM density map of the active SfSTING–c-di-GMP filament complex
"SfSTING ΔA36–K41 (TIR BB loop replaced by a glycine-serine linker, D35-GSGG-S42) (enzyme, Sphingobacterium faecium, UniProt A0A2T5Y4G4 1-323, looked up, S. faecium TIR–STING (SfSTING) in which residues A36–K41 of the TIR BB loop are replaced by GSGG (D35-GSGG-S42); Mutant of m1; also called TIR-to-TIR cross-filament contact mutant; SfSTING TIR mutant; source: E. coli BL21-CodonPlus(DE3)-RIL, purified (Ni-NTA, Superdex 200 SEC)) MKKRIFIGSSSEQLTILNEIVDLLGDDVECIPWTDGSGGSGLDSLIKQTRLADYSILIATKDDLTKQRGESLTKPRDNVVFEFGLFLGAAGPEKCYLIAEEDTDLPTDLDGITVAKFTRNSGQYNSLDKIVESIRTHLVKIAEMSQLGLLPSTALAIGYYNSFIKRVCEEIHGSECVELEGKKIKVKSFRVDVVIPETLDDNGVGNFTTLYNKRYGLSKATTCTNPALLGTRGFPFHFKVDPPDANQESPVDIHLLDIPSTLSTIVESLKLYLPSNQVGQDFDMDYLEMRELENFAKVLKYLIGRNAATKGYVNVLTNVKL",binding result,[3],binds
"Sphingobacterium faecium TIR–STING (SfSTING), wild type (enzyme, UniProt A0A2T5Y4G4 1-323, looked up, TIR–STING antiphage effector of the S. faecium CBASS operon; also called WT; source: E. coli BL21-CodonPlus(DE3)-RIL, purified (Ni-NTA, Superdex 200 SEC)) MKKRIFIGSSSEQLTILNEIVDLLGDDVECIPWTDAFALNKSGLDSLIKQTRLADYSILIATKDDLTKQRGESLTKPRDNVVFEFGLFLGAAGPEKCYLIAEEDTDLPTDLDGITVAKFTRNSGQYNSLDKIVESIRTHLVKIAEMSQLGLLPSTALAIGYYNSFIKRVCEEIHGSECVELEGKKIKVKSFRVDVVIPETLDDNGVGNFTTLYNKRYGLSKATTCTNPALLGTRGFPFHFKVDPPDANQESPVDIHLLDIPSTLSTIVESLKLYLPSNQVGQDFDMDYLEMRELENFAKVLKYLIGRNAATKGYVNVLTNVKL",stoichiometry N,[4],4 to 6 units (dimers)
same,stoichiometry N,[5],~85 dimer copies
"SfSTING D110A (enzyme, Sphingobacterium faecium, UniProt A0A2T5Y4G4 1-323, looked up, S. faecium TIR–STING (SfSTING) with a substitution of the TIR DD-loop residue that completes the active site of the dimer mate; Mutant of m1; same vector and purification; also called intradimeric contact mutant; source: E. coli BL21-CodonPlus(DE3)-RIL, purified (Ni-NTA, Superdex 200 SEC)) MKKRIFIGSSSEQLTILNEIVDLLGDDVECIPWTDAFALNKSGLDSLIKQTRLADYSILIATKDDLTKQRGESLTKPRDNVVFEFGLFLGAAGPEKCYLIAEEDTDLPTALDGITVAKFTRNSGQYNSLDKIVESIRTHLVKIAEMSQLGLLPSTALAIGYYNSFIKRVCEEIHGSECVELEGKKIKVKSFRVDVVIPETLDDNGVGNFTTLYNKRYGLSKATTCTNPALLGTRGFPFHFKVDPPDANQESPVDIHLLDIPSTLSTIVESLKLYLPSNQVGQDFDMDYLEMRELENFAKVLKYLIGRNAATKGYVNVLTNVKL",binding result,[3],binds
